# Experimental data taken from the supplement of paper PMC5998384.
# Experiments:
# HeLa Kyoto [1] = experiment: melting temperature (median over replicates), in situ; higher = more thermally stable
# HeLa Kyoto [2] = experiment: thermal stability score vs G1/S (z-score of summed log2 fold changes over temperatures); higher = more thermally stable than in G1/S
# HeLa Kyoto [3] = experiment: solubility change mitosis vs G1/S (difference of NP-40 vs SDS log2 ratios) (log2 ratio difference); higher = more soluble in mitosis
# HeLa Kyoto [4] = experiment: solubility in G1/S (NP-40 vs SDS abundance) (log2 ratio); higher = more soluble; details: cell cycle stage: G1/S
# [5] = cell cycle stage: early G1 (4.5 h after nocodazole release)
# 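Throughout, for melting temperature (median over replicates), in situ: HeLa Kyoto cells synchronized by double thymidine or nocodazole block, proteins quantified by TMT10plex mass spectrometry, three independent biological replicates.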
# 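Throughout, for solubility change mitosis vs G1/S (difference of NP-40 vs SDS log2 ratios): synchronized HeLa Kyoto cells (double thymidine block for G1/S, nocodazole release for mitosis), protein amounts in NP-40 versus SDS lysates quantified by mass spectrometry, three biological replicates.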
# 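Throughout, for solubility in G1/S (NP-40 vs SDS abundance): HeLa Kyoto cells arrested at G1/S by double thymidine block, proteins quantified by TMT10plex mass spectrometry in mild NP-40 versus SDS extracts, three biological replicates.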
# 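Throughout, for thermal stability score vs G1/S (z-score of summed log2 fold changes over temperatures): synchronized HeLa Kyoto cells, proteins quantified by TMT10plex mass spectrometry, three biological replicates, mitosis taken 0.5 h after nocodazole release, G1/S directly after double thymidine block.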
Substance,melting temperature (HeLa Kyoto [1]; cell cycle stage: G1/S) [°C],melting temperature (HeLa Kyoto [1]; cell cycle stage: mitosis) [°C],thermal stability score (HeLa Kyoto [2]; [5]),thermal stability score (HeLa Kyoto [2]; cell cycle stage: mitosis),solubility change mitosis (log2) (HeLa Kyoto [3]),solubility in G1/S (log2) (HeLa Kyoto [4])
MEPRPTAPSSGAPGLAGVGETPSAAALAAARVELPGTAVPSVPEDAAPASRDGGGVRDEGPAAAGDGLGRPLGPTPSQSRFQVDLVSENAGRAAAAAAAAAAAAAAAGAGAGAKQTPADGEASGESEPAKGSEEAKGRFRVNFVDPAASSSAEDSLSDAAGVGVDGPNVSFQNGGDTVLSEGSSLHSGGGGGSGHHQHYYYDTHTNTYYLRTFGHNTMDAVPRIDHYRHTAAQLGEKLLRPSLAELHDELEKEPFEDGFANGEESTPTRDAVVTYTAESKGVVKFGWIKGVLVRCMLNIWGVMLFIRLSWIVGQAGIGLSVLVIMMATVVTTITGLSTSAIATNGFVRGGGAYYLISRSLGPEFGGAIGLIFAFANAVAVAMYVVGFAETVVELLKEHSILMIDEINDIRIIGAITVVILLGISVAGMEWEAKAQIVLLVILLLAIGDFVIGTFIPLESKKPKGFFGYKSEIFNENFGPDFREEETFFSVFAIFFPAATGILAGANISGDLADPQSAIPKGTLLAILITTLVYVGIAVSVGSCVVRDATGNVNDTIVTELTNCTSAACKLNFDFSSCESSPCSYGLMNNFQVMSMVSGFTPLISAGIFSATLSSALASLVSAPKIFQALCKDNIYPAFQMFAKGYGKNNEPLRGYILTFLIALGFILIAELNVIAPIISNFFLASYALINFSVFHASLAKSPGWRPAFKYYNMWISLLGAILCCIVMFVINWWAALLTYVIVLGLYIYVTYKKPDVNWGSSTQALTYLNALQHSIRLSGVEDHVKNFRPQCLVMTGAPNSRPALLHLVHDFTKNVGLMICGHVHMGPRRQAMKEMSIDQAKYQRWLIKNKMKAFYAPVHADDLREGAQYLMQAAGLGRMKPNTLVLGFKKDWLQADMRDVDMYINLFHDAFDIQYGVVVIRLKEGLDISHLQGQEELLSSQEKSPGTKDVVVSVEYSKKSDLDTSKPLSEKPITHKVEEEDGKTATQPLLKKESKGPIVPLNVADQKLLEASTQFQKKQGKNTIDVWWLFDDGGLTLLIPYLLTTKKKWKDCKIRVFIGGKINRIDHDRRAMATLLSKFRIDFSDIMVLGDINTKPKKENIIAFEEIIEPYRLHEDDKEQDIADKMKEDEPWRITDNELELYKTKTYRQIRLNELLKEHSSTANIIVMSLPVARKGAVSSALYMAWLEALSKDLPPILLVRGNHQSVLTFYS [SLC12A2],53.4,53.3,1.53,1.39,-0.137,-0.0146
MARVAWGLLWLLLGSAGAQYEKYSFRGFPPEDLMPLAAAYGHALEQYEGESWRESARYLEAALRLHRLLRDSEAFCHANCSGPAPAAKPDPDGGRADEWACELRLFGRVLERAACLRRCKRTLPAFQVPYPPRQLLRDFQSRLPYQYLHYALFKANRLEKAVAAAYTFLQRNPKHELTAKYLNYYQGMLDVADESLTDLEAQPYEAVFLRAVKLYNSGDFRSSTEDMERALSEYLAVFARCLAGCEGAHEQVDFKDFYPAIADLFAESLQCKVDCEANLTPNVGGYFVDKFVATMYHYLQFAYYKLNDVRQAARSAASYMLFDPKDSVMQQNLVYYRFHRARWGLEEEDFQPREEAMLYHNQTAELRELLEFTHMYLQSDDEMELEETEPPLEPEDALSDAEFEGEGDYEEGMYADWWQEPDAKGDEAEAEPEPELA [P3H4],53.2,53.6,0.153,0.25,-0.0349,-0.293
MSHLPMKLLRKKIEKRNLKLRQRNLKFQGASNLTLSETQNGDVSEETMGSRKVKKSKQKPMNVGLSETQNGGMSQEAVGNIKVTKSPQKSTVLTNGEAAMQSSNSESKKKKKKKRKMVNDAEPDTKKAKTENKGKSEEESAETTKETENNVEKPDNDEDESEVPSLPLGLTGAFEDTSFASLCNLVNENTLKAIKEMGFTNMTEIQHKSIRPLLEGRDLLAAAKTGSGKTLAFLIPAVELIVKLRFMPRNGTGVLILSPTRELAMQTFGVLKELMTHHVHTYGLIMGGSNRSAEAQKLGNGINIIVATPGRLLDHMQNTPGFMYKNLQCLVIDEADRILDVGFEEELKQIIKLLPTRRQTMLFSATQTRKVEDLARISLKKEPLYVGVDDDKANATVDGLEQGYVVCPSEKRFLLLFTFLKKNRKKKLMVFFSSCMSVKYHYELLNYIDLPVLAIHGKQKQNKRTTTFFQFCNADSGTLLCTDVAARGLDIPEVDWIVQYDPPDDPKEYIHRVGRTARGLNGRGHALLILRPEELGFLRYLKQSKVPLSEFDFSWSKISDIQSQLEKLIEKNYFLHKSAQEAYKSYIRAYDSHSLKQIFNVNNLNLPQVALSFGFKVPPFVDLNVNSNEGKQKKRGGGGGFGYQKTKKVEKSKIFKHISKKSSDSRQFSH [DDX18],51,52,1.68,1.02,1.1,-2.49
MLRLPTVFRQMRPVSRVLAPHLTRAYAKDVKFGADARALMLQGVDLLADAVAVTMGPKGRTVIIEQSWGSPKVTKDGVTVAKSIDLKDKYKNIGAKLVQDVANNTNEEAGDGTTTATVLARSIAKEGFEKISKGANPVEIRRGVMLAVDAVIAELKKQSKPVTTPEEIAQVATISANGDKEIGNIISDAMKKVGRKGVITVKDGKTLNDELEIIEGMKFDRGYISPYFINTSKGQKCEFQDAYVLLSEKKISSIQSIVPALEIANAHRKPLVIIAEDVDGEALSTLVLNRLKVGLQVVAVKAPGFGDNRKNQLKDMAIATGGAVFGEEGLTLNLEDVQPHDLGKVGEVIVTKDDAMLLKGKGDKAQIEKRIQEIIEQLDVTTSEYEKEKLNERLAKLSDGVAVLKVGGTSDVEVNEKKDRVTDALNATRAAVEEGIVLGGGCALLRCIPALDSLTPANEDQKIGIEIIKRTLKIPAMTIAKNAGVEGSLIVEKIMQSSSEVGYDAMAGDFVNMVEKGIIDPTKVVRTALLDAAGVASLLTTAEVVVTEIPKEEKDPGMGAMGGMGGGMGGGMF [HSPD1],55.2,55,1.84,-0.583,0.129,0.316
LDLR,56.6,56.6,-1.81,-1.47,-0.00467,-0.34
MAMVTGGWGGPGGDTNGVDKAGGYPRAAEDDSASPPGAASDAEPGDEERPGLQVDCVVCGDKSSGKHYGVFTCEGCKSFFKRSIRRNLSYTCRSNRDCQIDQHHRNQCQYCRLKKCFRVGMRKEAVQRGRIPHSLPGAVAASSGSPPGSALAAVASGGDLFPGQPVSELIAQLLRAEPYPAAAGRFGAGGGAAGAVLGIDNVCELAARLLFSTVEWARHAPFFPELPVADQVALLRLSWSELFVLNAAQAALPLHTAPLLAAAGLHAAPMAAERAVAFMDQVRAFQEQVDKLGRLQVDSAEYGCLKAIALFTPDACGLSDPAHVESLQEKAQVALTEYVRAQYPSQPQRFGRLLLRLPALRAVPASLISQLFFMRLVGKTPIETLIRDMLLSGSTFNWPYGSGQ [NR2F6],53.1,50.3,0.278,0.498,-0.047,0.0616
MEGGPAVCCQDPRAELVERVAAIDVTHLEEADGGPEPTRNGVDPPPRARAASVIPGSTSRLLPARPSLSARKLSLQERPAGSYLEAQAGPYATGPASHISPRAWRRPTIESHHVAISDAEDCVQLNQYKLQSEIGKGAYGVVRLAYNESEDRHYAMKVLSKKKLLKQYGFPRRPPPRGSQAAQGGPAKQLLPLERVYQEIAILKKLDHVNVVKLIEVLDDPAEDNLYLVFDLLRKGPVMEVPCDKPFSEEQARLYLRDVILGLEYLHCQKIVHRDIKPSNLLLGDDGHVKIADFGVSNQFEGNDAQLSSTAGTPAFMAPEAISDSGQSFSGKALDVWATGVTLYCFVYGKCPFIDDFILALHRKIKNEPVVFPEEPEISEELKDLILKMLDKNPETRIGVPDIKLHPWVTKNGEEPLPSEEEHCSVVEVTEEEVKNSVRLIPSWTTVILVKSMLRKRSFGNPFEPQARREERSMSAPGNLLVKEGFGEGGKSPELPGVQEDEAAS [CAMKK1],,50.4,-0.286,0.129,0.147,0.186
MEIPGSLCKKVKLSNNAQNWGMQRATNVTYQAHHVSRNKRGQVVGTRGGFRGCTVWLTGLSGAGKTTVSMALEEYLVCHGIPCYTLDGDNIRQGLNKNLGFSPEDREENVRRIAEVAKLFADAGLVCITSFISPYTQDRNNARQIHEGASLPFFEVFVDAPLHVCEQRDVKGLYKKARAGEIKGFTGIDSEYEKPEAPELVLKTDSCDVNDCVQQVVELLQERDIVPVDASYEVKELYVPENKLHLAKTDAETLPALKINKVDMQWVQVLAEGWATPLNGFMREREYLQCLHFDCLLDGGVINLSVPIVLTATHEDKERLDGCTAFALMYEGRRVAILRNPEFFEHRKEERCARQWGTTCKNHPYIKMVMEQGDWLIGGDLQVLDRVYWNDGLDQYRLTPTELKQKFKDMNADAVFAFQLRNPVHNGHALLMQDTHKQLLERGYRRPVLLLHPLGGWTKDDDVPLMWRMKQHAAVLEEGVLNPETTVVAIFPSPMMYAGPTEVQWHCRARMVAGANFYIVGRDPAGMPHPETGKDLYEPSHGAKVLTMAPGLITLEIVPFRVAAYNKKKKRMDYYDSEHHEDFEFISGTRMRKLAREGQKPPEGFMAPKAWTVLTEYYKSLEKA [PAPSS1],53.6,53.8,0.0766,-0.551,-0.174,0.104
MSGSMATAEASGSDGKGQEVETSVTYYRLEEVAKRNSLKELWLVIHGRVYDVTRFLNEHPGGEEVLLEQAGVDASESFEDVGHSSDAREMLKQYYIGDIHPSDLKPESGSKDPSKNDTCKSCWAYWILPIIGAVLLGFLYRYYTSESKSS [CYB5B],57.2,,1.14,-0.285,0.0898,-0.0447
MGGCTVKPQLLLLALVLHPWNPCLGADSEKPSSIPTDKLLVITVATKESDGFHRFMQSAKYFNYTVKVLGQGEEWRGGDGINSIGGGQKVRLMKEVMEHYADQDDLVVMFTECFDVIFAGGPEEVLKKFQKANHKVVFAADGILWPDKRLADKYPVVHIGKRYLNSGGFIGYAPYVNRIVQQWNLQDNDDDQLFYTKVYIDPLKREAINITLDHKCKIFQTLNGAVDEVVLKFENGKARAKNTFYETLPVAINGNGPTKILLNYFGNYVPNSWTQDNGCTLCEFDTVDLSAVDVHPNVSIGVFIEQPTPFLPRFLDILLTLDYPKEALKLFIHNKEVYHEKDIKVFFDKAKHEIKTIKIVGPEENLSQAEARNMGMDFCRQDEKCDYYFSVDADVVLTNPRTLKILIEQNRKIIAPLVTRHGKLWSNFWGALSPDGYYARSEDYVDIVQGNRVGVWNVPYMANVYLIKGKTLRSEMNERNYFVRDKLDPDMALCRNAREMGVFMYISNRHEFGRLLSTANYNTSHYNNDLWQIFENPVDWKEKYINRDYSKIFTENIVEQPCPDVFWFPIFSEKACDELVEEMEHYGKWSGGKHHDSRISGGYENVPTDDIHMKQVDLENVWLHFIREFIAPVTLKVFAGYYTKGFALLNFVVKYSPERQRSLRPHHDASTFTINIALNNVGEDFQGGGCKFLRYNCSIESPRKGWSFMHPGRLTHLHEGLPVKNGTRYIAVSFIDP [PLOD2],53.9,54.6,3.26,4.23,-0.123,0.13
